Starred links: 1 amine or outer side, 2 acyl side, 3 side chain; linkers in the order of their positions; H or OH if unused. Non-standard residues stand in square brackets, D forms with d. Groups on a side chain read outwards from the residue. *: point of attachment. C20 diacid = O=C(O)CCCCCCCCCCCCCCCCCCC(=O)*; C18 diacid = O=C(O)CCCCCCCCCCCCCCCCC(=O)*; γGlu = O=C(O)[C@H](CCC(=O)[*:2])N[*:1]; AEEA = NCCOCCOCC(=O)O; Aib = CC(C)(N)C(=O)O
T1: human GLP-1 receptor (human), P43220
T1 chain: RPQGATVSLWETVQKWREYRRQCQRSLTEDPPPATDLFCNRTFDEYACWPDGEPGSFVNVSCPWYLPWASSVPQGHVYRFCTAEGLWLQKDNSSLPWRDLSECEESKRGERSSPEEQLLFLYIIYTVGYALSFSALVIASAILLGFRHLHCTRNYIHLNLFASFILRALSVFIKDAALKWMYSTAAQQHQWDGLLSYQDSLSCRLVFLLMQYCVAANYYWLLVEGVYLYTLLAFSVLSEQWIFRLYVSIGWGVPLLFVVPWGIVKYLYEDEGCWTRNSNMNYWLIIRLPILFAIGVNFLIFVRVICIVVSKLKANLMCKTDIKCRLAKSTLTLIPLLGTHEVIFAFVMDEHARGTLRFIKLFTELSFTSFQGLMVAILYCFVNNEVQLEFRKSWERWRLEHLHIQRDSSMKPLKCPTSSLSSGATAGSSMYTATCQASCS

T2: rat GLP-1-R (rat), P32301
T2 chain: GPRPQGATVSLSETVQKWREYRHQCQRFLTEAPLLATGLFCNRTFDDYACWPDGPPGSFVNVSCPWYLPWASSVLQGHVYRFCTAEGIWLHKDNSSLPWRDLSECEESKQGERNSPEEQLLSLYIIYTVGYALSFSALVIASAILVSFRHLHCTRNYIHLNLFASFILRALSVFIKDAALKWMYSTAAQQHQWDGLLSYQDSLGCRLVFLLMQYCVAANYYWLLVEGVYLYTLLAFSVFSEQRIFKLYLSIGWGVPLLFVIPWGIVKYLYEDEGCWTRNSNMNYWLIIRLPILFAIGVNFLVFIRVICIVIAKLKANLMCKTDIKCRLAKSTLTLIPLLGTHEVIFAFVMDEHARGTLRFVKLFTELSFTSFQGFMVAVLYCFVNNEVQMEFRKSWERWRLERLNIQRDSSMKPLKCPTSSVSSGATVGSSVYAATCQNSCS

B1: Compound 3 (peptide)
peptide: H-H[Aib]QGTFTSDYSKYLDEKKAK([AEEA-AEEA-γGlu-γGlu-C18 diacid])EFVEWLLSGGPSSG-NH2
SMILES: CC(C)C[C@H](NC(=O)[C@H](CC(C)C)NC(=O)[C@H](Cc1c[nH]c2ccccc12)NC(=O)[C@H](CCC(=O)O)NC(=O)[C@@H](NC(=O)[C@H](Cc1ccccc1)NC(=O)[C@H](CCC(=O)O)NC(=O)[C@H](CCCCNC(=O)COCCOCCNC(=O)COCCOCCNC(=O)CC[C@H](NC(=O)CC[C@H](NC(=O)CCCCCCCCCCCCCCCCC(=O)O)C(=O)O)C(=O)O)NC(=O)[C@H](C)NC(=O)[C@H](CCCCN)NC(=O)[C@H](CCCCN)NC(=O)[C@H](CCC(=O)O)NC(=O)[C@H](CC(=O)O)NC(=O)[C@H](CC(C)C)NC(=O)[C@H](Cc1ccc(O)cc1)NC(=O)[C@H](CCCCN)NC(=O)[C@H](CO)NC(=O)[C@H](Cc1ccc(O)cc1)NC(=O)[C@H](CC(=O)O)NC(=O)[C@H](CO)NC(=O)[C@@H](NC(=O)[C@H](Cc1ccccc1)NC(=O)[C@@H](NC(=O)CNC(=O)[C@H](CCC(N)=O)NC(=O)C(C)(C)NC(=O)[C@@H](N)Cc1c[nH]cn1)[C@@H](C)O)[C@@H](C)O)C(C)C)C(=O)N[C@@H](CO)C(=O)NCC(=O)NCC(=O)N1CCC[C@H]1C(=O)N[C@@H](CO)C(=O)N[C@@H](CO)C(=O)NCC(N)=O
B2: Compound 1 (peptide)
peptide: H-H[Aib]QGTFTSDYSKYLDEKKAK([AEEA-AEEA-γGlu-C18 diacid])EFVEWLLEGGPSSG-NH2
SMILES: CC(C)C[C@H](NC(=O)[C@H](CC(C)C)NC(=O)[C@H](Cc1c[nH]c2ccccc12)NC(=O)[C@H](CCC(=O)O)NC(=O)[C@@H](NC(=O)[C@H](Cc1ccccc1)NC(=O)[C@H](CCC(=O)O)NC(=O)[C@H](CCCCNC(=O)COCCOCCNC(=O)COCCOCCNC(=O)CC[C@H](NC(=O)CCCCCCCCCCCCCCCCC(=O)O)C(=O)O)NC(=O)[C@H](C)NC(=O)[C@H](CCCCN)NC(=O)[C@H](CCCCN)NC(=O)[C@H](CCC(=O)O)NC(=O)[C@H](CC(=O)O)NC(=O)[C@H](CC(C)C)NC(=O)[C@H](Cc1ccc(O)cc1)NC(=O)[C@H](CCCCN)NC(=O)[C@H](CO)NC(=O)[C@H](Cc1ccc(O)cc1)NC(=O)[C@H](CC(=O)O)NC(=O)[C@H](CO)NC(=O)[C@@H](NC(=O)[C@H](Cc1ccccc1)NC(=O)[C@@H](NC(=O)CNC(=O)[C@H](CCC(N)=O)NC(=O)C(C)(C)NC(=O)[C@@H](N)Cc1c[nH]cn1)[C@@H](C)O)[C@@H](C)O)C(C)C)C(=O)N[C@@H](CCC(=O)O)C(=O)NCC(=O)NCC(=O)N1CCC[C@H]1C(=O)N[C@@H](CO)C(=O)N[C@@H](CO)C(=O)NCC(N)=O
B3: Compound 4 (peptide)
peptide: H-H[Aib]QGTFTSDYSKYLDEKKAK([AEEA-AEEA-γGlu-γGlu-C20 diacid])EFVEWLLSGGPSSG-NH2
SMILES: CC(C)C[C@H](NC(=O)[C@H](CC(C)C)NC(=O)[C@H](Cc1c[nH]c2ccccc12)NC(=O)[C@H](CCC(=O)O)NC(=O)[C@@H](NC(=O)[C@H](Cc1ccccc1)NC(=O)[C@H](CCC(=O)O)NC(=O)[C@H](CCCCNC(=O)COCCOCCNC(=O)COCCOCCNC(=O)CC[C@H](NC(=O)CC[C@H](NC(=O)CCCCCCCCCCCCCCCCCCC(=O)O)C(=O)O)C(=O)O)NC(=O)[C@H](C)NC(=O)[C@H](CCCCN)NC(=O)[C@H](CCCCN)NC(=O)[C@H](CCC(=O)O)NC(=O)[C@H](CC(=O)O)NC(=O)[C@H](CC(C)C)NC(=O)[C@H](Cc1ccc(O)cc1)NC(=O)[C@H](CCCCN)NC(=O)[C@H](CO)NC(=O)[C@H](Cc1ccc(O)cc1)NC(=O)[C@H](CC(=O)O)NC(=O)[C@H](CO)NC(=O)[C@@H](NC(=O)[C@H](Cc1ccccc1)NC(=O)[C@@H](NC(=O)CNC(=O)[C@H](CCC(N)=O)NC(=O)C(C)(C)NC(=O)[C@@H](N)Cc1c[nH]cn1)[C@@H](C)O)[C@@H](C)O)C(C)C)C(=O)N[C@@H](CO)C(=O)NCC(=O)NCC(=O)N1CCC[C@H]1C(=O)N[C@@H](CO)C(=O)N[C@@H](CO)C(=O)NCC(N)=O

Target: T1, human GLP-1 receptor (human), P43220
Test: cell-based or functional assay

| EC50, cAMP production | Emax, cAMP production | Binder |
| --- | --- | --- |
| 34.3 nM | 105% | B1 |
| 23.9 nM | 104% | B2 |
| 83.1 nM | 107% | H-H[Aib]QGTFTSDYSKYLDEKKAK([AEEA-AEEA-γGlu-C20 diacid])EFVEWLLEGGPSSG-NH2 [Compound 2] |
| 106 nM | 85.2% | B3 |

What follows are binders tested against human Gcg receptor (human), P47871 (assay: cell-based or functional assay).
human Gcg receptor (human), P47871, sequence (P47871 26-477): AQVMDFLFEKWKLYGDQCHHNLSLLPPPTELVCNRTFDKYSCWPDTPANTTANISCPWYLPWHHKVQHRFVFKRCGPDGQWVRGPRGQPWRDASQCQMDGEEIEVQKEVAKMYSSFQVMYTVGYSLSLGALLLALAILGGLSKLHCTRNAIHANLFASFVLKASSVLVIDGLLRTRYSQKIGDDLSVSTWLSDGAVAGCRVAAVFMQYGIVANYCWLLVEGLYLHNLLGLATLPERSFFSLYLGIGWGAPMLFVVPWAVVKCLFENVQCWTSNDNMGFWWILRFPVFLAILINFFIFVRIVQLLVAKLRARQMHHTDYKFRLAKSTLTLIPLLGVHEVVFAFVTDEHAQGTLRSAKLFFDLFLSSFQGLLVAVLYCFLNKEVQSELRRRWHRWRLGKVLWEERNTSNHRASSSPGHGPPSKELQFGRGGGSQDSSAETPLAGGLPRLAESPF

| EC50, cAMP production | Emax, cAMP production | EC50 (nM), cAMP production in primary human hepatocytes | Binder |
| --- | --- | --- | --- |
| 15.3 nM | 104% | – | B1 |
| 7.21 nM | – | 99.9 nM | B2 |
| 26.5 nM | – | 159 nM | H-H[Aib]QGTFTSDYSKYLDEKKAK([AEEA-AEEA-γGlu-C20 diacid])EFVEWLLEGGPSSG-NH2 [Compound 2] |
| 68.8 nM | 116% | – | B3 |

Target: T2, rat GLP-1-R (rat), P32301
Test: cell-based or functional assay

| EC50 (nM), cAMP production in INS1 832-3 cells | Emax (%), cAMP production in INS1 832-3 cells | Binder |
| --- | --- | --- |
| 26.1 nM | 112% | B2 |
| 62 nM | 104% | H-H[Aib]QGTFTSDYSKYLDEKKAK([AEEA-AEEA-γGlu-C20 diacid])EFVEWLLEGGPSSG-NH2 [Compound 2] |

The binders below were run against human Gcg receptor (human), P47871 (assay: radioligand competition SPA, displacement of I-125 Gcg, hGcg-R 293HEK membranes).

| Ki | Binder |
| --- | --- |
| 37.3 nM | B1 |
| 14.6 nM | B2 |
| 17.7 nM | H-H[Aib]QGTFTSDYSKYLDEKKAK([AEEA-AEEA-γGlu-C20 diacid])EFVEWLLEGGPSSG-NH2 [Compound 2] |
| 27.4 nM | B3 |

Target: T1, human GLP-1 receptor (human), P43220
Test: radioligand competition SPA, displacement of I-125 GLP-1, hGLP-1-R 293HEK membranes

| Ki | Binder |
| --- | --- |
| 8.68 nM | B1 |
| 23 nM | B2 |
| 28.6 nM | H-H[Aib]QGTFTSDYSKYLDEKKAK([AEEA-AEEA-γGlu-C20 diacid])EFVEWLLEGGPSSG-NH2 [Compound 2] |
| 20.2 nM | B3 |

Reference: US20160368960A1
